Sequences and labels used below:
B1: C10orf62 (parent)
chain: RALEEVEMKLQKNFLTQRENTIAG
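Also: lentivirally expressed fusions sorted by FACS into six bins by GFP to DsRed ratio, PSI derived from sequencing read proportions per bin multiplied by bin number.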

Variants of B1 are the subject of the series. In words: protein stability index of a GFP-peptide fusion (GPS, HEK-293T) (PSI 1-6); higher = more stable. The settings on record: c terminus: a fixed tail appended.
In the case of RALEEVEMKLQKNFLTQRCNTIAG [E19C], the protein stability index is 2.33. On to RALEEVEMKLQKNFLTQRDNTIAG [E19D], for which the protein stability index worked out at 3.78. For RALEEVEMKLQKNFLTQREVTIAG [N20V], the protein stability index worked out at 3.35.

With RALEEVEMKLQKNFLTQREFTIAG [N20F], the protein stability index was found to be 2.52. The result for RALEEVEMKLQKNFLTQRECTIAG [N20C] reads 3.07.

Consider RALEEVEMKLQKNFLTQREGTIAG [N20G], for which the protein stability index is 3.6. As to RALEEVEMKLQKNFLTQREYTIAG [N20Y], the protein stability index was 2.64.

Consider RALEEVEMKLQKNFLTQREPTIAG [N20P], for which the protein stability index was 3.73. The figure for RALEEVEMKLQKNFLTQREHTIAG [N20H] is 2.85. The result for RALEEVEMKLQKNFLTQRELTIAG [N20L] reads 2.45; that for RALEEVEMKLQKNFLTQREQTIAG [N20Q], 3.81; that for RALEEVEMKLQKNFLTQRESTIAG [N20S], 3.7.

Consider RALEEVEMKLQKNFLTQREETIAG [N20E], for which the protein stability index is 4.17. The figure for RALEEVEMKLQKNFLTQRERTIAG [N20R] is 3.29; for RALEEVEMKLQKNFLTQRETTIAG [N20T] it is 3.7. Consider RALEEVEMKLQKNFLTQREWTIAG [N20W], for which the protein stability index amounted to 2.03. The figure for RALEEVEMKLQKNFLTQREKTIAG [N20K] is 3.75. The figure for RALEEVEMKLQKNFLTQREMTIAG [N20M] is 3.18.

For RALEEVEMKLQKNFLTQREATIAG [N20A], the protein stability index worked out at 3.24. The figure for RALEEVEMKLQKNFLTQREDTIAG [N20D] is 3.96; for RALEEVEMKLQKNFLTQREITIAG [N20I] it is 2.61. RALEEVEMKLQKNFLTCRENTIAG [Q17C]: the protein stability index turned out to be 3.21.

For RALEEVEMKLQKNFLTNRENTIAG [Q17N], the protein stability index came out at 3.89. In the case of RALEEVEMKLQKNFLTGRENTIAG [Q17G], the protein stability index turned out to be 3.73. The figure for RALEEVEMKLQKNFLTFRENTIAG [Q17F] is 2.13; for RALEEVEMKLQKNFLTMRENTIAG [Q17M] it is 3.56. The figure for RALEEVEMKLQKNFLTARENTIAG [Q17A] is 3.42. The result for RALEEVEMKLQKNFLTHRENTIAG [Q17H] reads 3.31. Turning to RALEEVEMKLQKNFLTSRENTIAG [Q17S], the protein stability index turned out to be 3.85. The figure for RALEEVEMKLQKNFLTDRENTIAG [Q17D] is 4.13; for RALEEVEMKLQKNFLTKRENTIAG [Q17K] it is 3.5.

Regarding RALEEVEMKLQKNFLTLRENTIAG [Q17L], the protein stability index was 3.03. The result for RALEEVEMKLQKNFLTVRENTIAG [Q17V] reads 3.06. Regarding RALEEVEMKLQKNFLTERENTIAG [Q17E], the protein stability index stood at 3.96. Consider RALEEVEMKLQKNFLTTRENTIAG [Q17T], for which the protein stability index stood at 3.2. Regarding RALEEVEMKLQKNFLTPRENTIAG [Q17P], the protein stability index is 3.69. Take RALEEVEMKLQKNFLTWRENTIAG [Q17W]: the protein stability index worked out at 2.92. The figure for RALEEVEMKLQKNFLTRRENTIAG [Q17R] is 2.74. On to RALEEVEMKLQKNFLTYRENTIAG [Q17Y], for which the protein stability index turned out to be 2.48.

For the variant RALEEVEMKLQKNFLTIRENTIAG [Q17I], the protein stability index amounted to 2.89. The result for RALEEVEMKLQKNPLTQRENTIAG [F14P] reads 4.66; that for RALEEVEMKLQKNVLTQRENTIAG [F14V], 3.97; that for RALEEVEMKLQKNWLTQRENTIAG [F14W], 3.61.

On to RALEEVEMKLQKNKLTQRENTIAG [F14K], for which the protein stability index worked out at 4.11.

RALEEVEMKLQKNRLTQRENTIAG [F14R]: the protein stability index stood at 4.33. Regarding RALEEVEMKLQKNMLTQRENTIAG [F14M], the protein stability index is 3.82. For RALEEVEMKLQKNHLTQRENTIAG [F14H], the protein stability index worked out at 4.47. The figure for RALEEVEMKLQKNYLTQRENTIAG [F14Y] is 3.69; for RALEEVEMKLQKNTLTQRENTIAG [F14T] it is 4.11; for RALEEVEMKLQKNSLTQRENTIAG [F14S] it is 4.37. The result for RALEEVEMKLQKNDLTQRENTIAG [F14D] reads 4.66. The figure for RALEEVEMKLQKNQLTQRENTIAG [F14Q] is 4.45.

For RALEEVEMKLQKNNLTQRENTIAG [F14N], the protein stability index worked out at 4.49. RALEEVEMKLQKNLLTQRENTIAG [F14L]: the protein stability index is 4.64.

For the variant RALEEVEMKLQKNELTQRENTIAG [F14E], the protein stability index is 4.61.

Consider RALEEVEMKLQKNGLTQRENTIAG [F14G], for which the protein stability index came out at 4.11. The result for RALEEVEMKLQKNILTQRENTIAG [F14I] reads 3.86. The result for RALEEVEMKLQKNFLTQRENTMAG [I22M] reads 3.54.

Take RALEEVEMKLQKNFLTQRENTHAG [I22H]: the protein stability index was 3.8. Turning to RALEEVEMKLQKNFLTQRENTFAG [I22F], the protein stability index was found to be 2.68. The result for RALEEVEMKLQKNFLTQRENTDAG [I22D] reads 4.11; that for RALEEVEMKLQKNFLTQRENTPAG [I22P], 3.38. As to RALEEVEMKLQKNFLTQRENTSAG [I22S], the protein stability index was found to be 3.88.

As to RALEEVEMKLQKNFLTQRENTWAG [I22W], the protein stability index is 2.38.

With RALEEVEMKLQKNFLTQRENTYAG [I22Y], the protein stability index amounted to 3.38. The figure for RALEEVEMKLQKNFLTQRENTTAG [I22T] is 3.89.

With RALEEVEMKLQKNFLTQRENTVAG [I22V], the protein stability index came to 3.59.

In the case of RALEEVEMKLQKNFLTQRENTAAG [I22A], the protein stability index was 4.15.

RALEEVEMKLQKNFLTQRENTNAG [I22N]: the protein stability index was 3.98. The figure for RALEEVEMKLQKNFLTQRENTRAG [I22R] is 3.15. The result for RALEEVEMKLQKNFLTQRENTLAG [I22L] reads 3.21; that for RALEEVEMKLQKNFLTQRENTEAG [I22E], 4.75; that for RALEEVEMKLQKNFLTQRENTGAG [I22G], 4.34.

RALEEVEMKLQKNFLTQRENTQAG [I22Q]: the protein stability index amounted to 4.09. The result for RALEEVEMKLQKNFLTQRENTCAG [I22C] reads 3.92. Take RALEEVEMKLQKNFLAQRENTIAG [T16A]: the protein stability index is 2.98. The result for RALEEVEMKLQKNFLHQRENTIAG [T16H] reads 3.44; that for RALEEVEMKLQKNFLYQRENTIAG [T16Y], 2.74; that for RALEEVEMKLQKNFLIQRENTIAG [T16I], 3.06. The figure for RALEEVEMKLQKNFLEQRENTIAG [T16E] is 3.91; for RALEEVEMKLQKNFLPQRENTIAG [T16P] it is 3.09. The figure for RALEEVEMKLQKNFLVQRENTIAG [T16V] is 3.16; for RALEEVEMKLQKNFLRQRENTIAG [T16R] it is 2.81; for RALEEVEMKLQKNFLMQRENTIAG [T16M] it is 3.23. Take RALEEVEMKLQKNFLGQRENTIAG [T16G]: the protein stability index was found to be 4.06. As for RALEEVEMKLQKNFLQQRENTIAG [T16Q], the protein stability index came out at 3.45. Take RALEEVEMKLQKNFLDQRENTIAG [T16D]: the protein stability index amounted to 4.09.

Take RALEEVEMKLQKNFLNQRENTIAG [T16N]: the protein stability index worked out at 2.83.

For RALEEVEMKLQKNFLCQRENTIAG [T16C], the protein stability index worked out at 3.24. In the case of RALEEVEMKLQKNFLFQRENTIAG [T16F], the protein stability index came to 3.26. The result for RALEEVEMKLQKNFLKQRENTIAG [T16K] reads 3.54. For the variant RALEEVEMKLQKNFLWQRENTIAG [T16W], the protein stability index was 2.97. The result for RALEEVEMKLQKNFLLQRENTIAG [T16L] reads 2.79; that for RALEEVEMKLQKNFLSQRENTIAG [T16S], 3.64.

Values taken from the supplement of paper PMC10567573.
